{"source": "the RNAGym collection of RNA variant scans (doi:10.1073/pnas.2313332121)", "parents": {"B1": {"name": "TPR 5TU (parent)", "chain": "GGAUCUUCUCGAUCUAACAAAAAAGACAAAUCUGCCACAAAGCUUGAGAGCAUCUUCGGAUGCAGAGGCGGCAGCCUUCGGUGGCGCGAUAGCGCCAACGUUCUCAACUAUGACACGCAAAACGCGUGCUCCGUUGAAUGGAGUUUAUCAUG"}}, "note": "Variants at the floor of the assay were thinned out."}
{"variants_of": "B1", "assay": "polymerase ribozyme fitness, log enrichment relative to wild type (log ratio); higher = more active; in vitro selection for triplet polymerase activity", "in_short": "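A single round of triplicate in vitro selection, including frozen incubation at −7 °C, was applied to PCR-built, transcribed mutant libraries of each subunit of a heterodimeric triplet polymerase ribozyme. Illumina sequencing of input and output libraries retained genotypes with ≥10 input reads and ≥1 read per output. Fitness is the base-2 logarithm of genotype enrichment divided by wild-type enrichment, from inverse-variance-weighted replicate averages.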"}
{"variant": "GGAUCUUCUCGAUCUAACAAAAAAGACAAAACUGCCACAAAGCUUGAGAGCAGCUUCGGAUGCAGAGGCGGCAGCCUUCGGUGUCGCGAUAGCGCGAACGUUCUCAACUAUGACACGCAAAACGCGUGCUCCGUUGAAUGGAGUUUAUCAUG", "note": "[U31A U53G G84U C96G]", "polymerase ribozyme fitness (log ratio)": "≤ -4.2"}
{"variant": "GGAUCUUCUCGAUCUAACAAAAAAGACAAAACUGCCACAAAGCUUGAGAGCAUCAUCGGAUGCAGAGGCGGCAGCCUUCGGUAGCGCGAUAGCGCCAACGUUCUCAACUAUGACACACAAAACGCGUGCUCCGUUGAAUGGAGUUUAUCAUG", "note": "[U31A U55A G83A G117A]", "polymerase ribozyme fitness (log ratio)": -0.253}
{"variant": "GGAUCUUCUCGAUCUAACAAAAAAGACAAAACUGCCACAAAGCUAGCGAGCAUCUUCGGAUGCAGAGGCGGCAGCCUUCGGUGGCGCGAUAGUGCCAAGGUUCUCAACUAUGACACGCAAAACGCGUGCUCCGUAGAAUGGAGUUUAUCAUG", "note": "[U31A U45A A47C C93U C99G U135A]", "polymerase ribozyme fitness (log ratio)": "≤ -4.2"}
{"variant": "GGAUCUUCUCGAUCUAACAAAAAAGACAAAACUGCCACAAAGCUUGAGAGCAUCUUCGGAUGCAGAGGCGGCAGCCUUCGGUGGCGCGAUAGCGCCAACGUUCUCAACUAUGACACGCAAAACGCGUGCUCCGUGGAAUGGACUUUAUCAUG", "note": "[U31A U135G G143C]", "polymerase ribozyme fitness (log ratio)": -3.93}
{"variant": "GGAUCUUCUCGAUCUAACAAAAAAGACAAAACUGCCACAAAGCUAGAGAGCAUCGUCGGAUGCAGAGGCGGCAGCCUUCGGUGGUGCGAUAGCGGCAACGUUCUCAACUAUGACACGCAGAACGCGUGCUCCGUUGAAUGGUGUUUAUCAUG", "note": "[U31A U45A U55G C85U C95G A120G A142U]", "polymerase ribozyme fitness (log ratio)": -4.06}
{"variant": "GGAUCUUCUCGAUCUAACAAAAAAGACAAAACUGCCACAAAGCUUGAGAGCAUCUUCGGAUGCAGAGGCGGCAGCCUUCGGUGGCUCGAUAGCGCCAACGUUCUCAACUAUGACACGCAAAACGCGUGCUCCGUUGAAUGGAGUUUAUCAUG", "note": "[U31A G86U]", "polymerase ribozyme fitness (log ratio)": -0.886}
{"variant": "GGAUCUUCUCGAUCUAACAAAAAAGACAAAACUGCCACAAAGCUUGAGAGCAUCUUCGGAUGCAGAGCCGGCAGCAUUCGGUGGAGCGAUAGCGCCAACGUUCUCAACUAUGACACGCAAAACGCGUGCUCCGUUGAAUGGAGUUUAUCAUG", "note": "[U31A G68C C76A C85A]", "polymerase ribozyme fitness (log ratio)": "≤ -4.2"}
{"variant": "GGAUCUUCUCGAUCUAACAAAAAAGACAAAACUGCCACAAAGCUUGAGAGCAACUUCGGAUGCAGAGGCGGCAGCCUUCGGUGGCGCGAUAGCGCCAACGUUCUCAACUAUGACACGCAAAACGCGUGCUCCGUUGAAUGGAGUUUAUCAUG", "note": "[U31A U53A]", "polymerase ribozyme fitness (log ratio)": -0.327}
{"variant": "GGAUCUUCUCGAUCUAACAAAAAAGACAAAACUGCCACAAAGCUUGAGAGCAUCUUCCGAUGCAGAGGCGGCAGACUUCGGUGGCGCGAUAGCGCCAACGUUUUCAACAGUGACACGCAAAACGCGUGCUCCGUUGAAUGGAGUUUAUCAUG", "note": "[U31A G58C C75A C103U U109A A110G]", "polymerase ribozyme fitness (log ratio)": "≤ -4.2"}
{"variant": "GGAUCUUCUCGAUCUAACAAAAAAGACAAACCUGCCACACAGCUUGAGAGCAUCUUCGGAUGCAGAGGCGGCAGCCUUCGGUGGCGCGAUAGCACCAACGUUCUCAACUAUGACACGCAAAACGCGUGCUCCGUUGAAUGGAGUUUAUCAUG", "note": "[U31C A40C G94A]", "polymerase ribozyme fitness (log ratio)": 1.25}
{"variant": "GGAUCUUCUCGAUCUAACAAAAAAGACAAAACUGCCACAAAGCUUGAGAGCAUCUUCGGAUGCAGAGGCGGCAGCCUUCGGUGGCGCGAUAGCACCAACGUUCUCAACUAUGACACGCAAAACGCGUGCUCCGUUGAAUGGAGUUUAUCAUG", "note": "[U31A G94A]", "polymerase ribozyme fitness (log ratio)": -0.349}
{"variant": "GGAUCUUCUCGAUCUAACAAAAAAGACAAAACUGCCACAAAGCUUGAGAGCAUCUUCGGAUGCAGAGGCGGCAGCCUUCGGUGGCACGAUAGCGCCAACGUUCUCAACUAUGACACGCAAAACGCGUGCUCCGCUGAAUGGAGUUUAUCAUG", "note": "[U31A G86A U134C]", "polymerase ribozyme fitness (log ratio)": -0.431}
{"variant": "GGAUCUUCUCGAUCUAACAAAAAAGACAAAACUGCCACAAAGCUUGACAGCAUCUUCGGAUGCAGAGGCGGCAGCCUUCGGUGGAGCGAUAGCGCCAACGUUCUCAACUAUGACACGCAAAACGCGUGCUCCGUUGAAUGGAGUUUAUCAUG", "note": "[U31A G48C C85A]", "polymerase ribozyme fitness (log ratio)": -2.98}
{"variant": "GGAUCUUCUCGAUCUAACAAAAAAGACAAAACUGCCACAAAGCUUGAGAGCAUCAUCGGAUGCAGAGGCGGCAGCCUUCGGUGGCGCGAUAGCGCCAACGUUCUCAACUAUGACACGCAAAACGCGUGCUCCGUUGAAUGGAGUUUGUCAUG", "note": "[U31A U55A A147G]", "polymerase ribozyme fitness (log ratio)": -0.55}
{"variant": "GGAUCUUCUCGAUCUAACAAAAAAGACAAACCUGCCACCAAGCUUGAGAGCAUUUUCGGAUGCAGAGGCGGCGGCCUUCGGUGGCGCGAGAGCGCCAACGUUCUCAACUAUGACACGCAAAACACGUGCUCCGUUGAAUGGAGUUUAUCAUG", "note": "[U31C A39C C54U A73G U90G G124A]", "polymerase ribozyme fitness (log ratio)": "≤ -4.2"}
{"variant": "GGAUCUUCUCGAUCUAACAAAAAAGACAAAACUGCCACAAAGCUUGAGAGCAUCUACGGAUGCAGAGGCGGCAGCCUUCGGUGGCACGAUAGCGCCCACGUUCUAAACUAUGACACGCAAAACGCGUGCUCCGUUGAAUGGAGUCUAUCAUG", "note": "[U31A U56A G86A A97C C105A U145C]", "polymerase ribozyme fitness (log ratio)": "≤ -4.2"}
{"variant": "GGAUCUUCUCGAUCUAACAAAAAAGACAAAACUGCCACAAAGCUUGAGACCAUCUUCGGAUGCAGAGGCGGCAGCCUUCGGUGGUGCGAUAGCGCCAACGUUCUCAACUAUGACACGCAAAACGCGUGCUCCGUUGAAUGGAGUUUAUCAUG", "note": "[U31A G50C C85U]", "polymerase ribozyme fitness (log ratio)": -3.83}
{"variant": "GGAUCUUCUCGAUCUAACAAAAAAGACAAAACUGCCACAAAGCUUGAGAGCAUCUUCGAAUGCAGAGGCGGCAGCCUUCGGUGACGCGAUAGCGCCAACGUGCUCAACUAUGACACGCAAAACGCGUCCUCCGUUGAAUGGCGUUUAUCAUG", "note": "[U31A G59A G84A U102G G128C A142C]", "polymerase ribozyme fitness (log ratio)": "≤ -4.2"}
{"variant": "GGAUCUUCUCGAUCUAACAAAAAAGACAAAACUGCCACAAAGCUUGAGAGCAUCAUCGGAUGCAGAGGCGGCAGCCUUCGGUGGCGCGAUAGCGCCUACGUUCUCAACUAUGACACGCAAAACGCGUGCUCCGUUGAAUGGAGUGUAUCAUG", "note": "[U31A U55A A97U U145G]", "polymerase ribozyme fitness (log ratio)": -0.219}
